Assay results: paper PMC8482512, “Aim32 is a dual-localized 2Fe-2S mitochondrial protein that functions in redox quality control” (The Journal of Biological Chemistry, 2021)
Values belong to the molecule of their own block, whether it stands above or below them.

Columns and labels:
[1] = target: Osm1 with a C-terminal histidine tag (Osm1-His) (S. cerevisiae) (UniProt P21375); experiment: pull-down; mitochondria of His-tagged strains solubilized in 1% digitonin, 500 μg lysate incubated with Ni2+-agarose beads, washed, eluted, immunoblot; untagged WT strain as control
[2] = target: Erv1 with a C-terminal histidine tag (Erv1-His) (S. cerevisiae) (UniProt P27882); experiment: as above
[3] = target: T1, Aim32 with a C-terminal FLAG tag (Aim32-FLAG) (S. cerevisiae, UniProt Q04689 1-311); experiment: co-IP; mitochondrial lysate of Δaim32 [pAIM32-FLAG], ANTI-FLAG M2 affinity gel (FLAG-resin), immunoblot with the indicated antibodies; settings: partners not purified
T1 construct: Aim32, S. cerevisiae, PCR-amplified from genomic DNA of strain GA74-1A; also called pAIM32-FLAG; pAIM32; source: S. cerevisiae Δaim32 strain transformed with [pAIM32-FLAG]; (GPD promoter), mitochondrial lysate; not shown: 3XFLAG, C-terminal, kept
T1 sequence (looked up): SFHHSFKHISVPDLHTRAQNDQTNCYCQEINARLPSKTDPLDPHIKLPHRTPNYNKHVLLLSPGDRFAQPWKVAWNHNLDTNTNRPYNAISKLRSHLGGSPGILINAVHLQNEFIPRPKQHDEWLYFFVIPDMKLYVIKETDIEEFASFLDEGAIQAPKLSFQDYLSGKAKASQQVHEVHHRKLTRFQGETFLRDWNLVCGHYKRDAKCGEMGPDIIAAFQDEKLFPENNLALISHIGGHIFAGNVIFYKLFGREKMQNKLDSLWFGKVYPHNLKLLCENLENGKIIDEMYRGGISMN

Chain of Osm1 with a C-terminal histidine tag (Osm1-His) (S. cerevisiae) (P21375 33-501): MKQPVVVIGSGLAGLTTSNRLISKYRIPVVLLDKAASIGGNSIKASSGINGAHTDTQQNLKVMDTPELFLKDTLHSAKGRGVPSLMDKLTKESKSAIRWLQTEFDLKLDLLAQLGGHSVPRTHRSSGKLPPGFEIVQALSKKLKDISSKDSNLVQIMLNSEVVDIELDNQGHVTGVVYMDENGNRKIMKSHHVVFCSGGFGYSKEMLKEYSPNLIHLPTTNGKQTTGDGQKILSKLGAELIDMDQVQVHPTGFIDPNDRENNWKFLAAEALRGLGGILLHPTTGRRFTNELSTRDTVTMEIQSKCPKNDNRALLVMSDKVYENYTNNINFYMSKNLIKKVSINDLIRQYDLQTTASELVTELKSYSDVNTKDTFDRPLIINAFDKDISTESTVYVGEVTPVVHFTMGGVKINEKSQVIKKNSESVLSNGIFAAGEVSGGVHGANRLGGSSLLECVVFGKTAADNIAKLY
Chain of Erv1 with a C-terminal histidine tag (Erv1-His) (S. cerevisiae) (P27882 whole entry): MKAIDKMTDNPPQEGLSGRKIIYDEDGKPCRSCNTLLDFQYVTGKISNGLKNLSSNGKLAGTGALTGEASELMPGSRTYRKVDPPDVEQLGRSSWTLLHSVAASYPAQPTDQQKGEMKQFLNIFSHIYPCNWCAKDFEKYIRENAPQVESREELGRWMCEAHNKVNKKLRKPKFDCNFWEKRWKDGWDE

fraction copurified [1]: 5%
fraction copurified [2]: 10%
Molecule: Altered inheritance of mitochondria 32 (Aim32) (from UniProt Q04689 1-311) (natural protein)

fraction copurified [3]: ~10%
B1: Sod2 (enzyme, UniProt P00447 27-233, looked up)
chain: KVTLPDLKWDFGALEPYISGQINELHYTKHHQTYVNGFNTAVDQFQELSDLLAKEPSPANARKMIAIQQNIKFHGGGFTNHCLFWENLAPESQGGGEPPTGALAKAIDEQFGSLDELIKLTNTKLAGVQGSGWAFIVKNLSNGGKLDVVQTYNQDTVTGPLVPLVAIDAWEHAYYLQYQNKKADYFKAIWNVVNWKEASRRFDAGKI
notes: Sod2, matrix antioxidant (superoxide dismutase), S. cerevisiae; source: endogenous, S. cerevisiae mitochondrial lysate

fraction copurified [3]: ~10%
B2: Tim23 (natural protein, UniProt P32897 1-222, looked up)
chain: MSWLFGDKTPTDDANAAVGGQDTTKPKELSLKQSLGFEPNINNIISGPGGMHVDTARLHPLAGLDKGVEYLDLEEEQLSSLEGSQGLIPSRGWTDDLCYGTGAVYLLGLGIGGFSGMMQGLQNIPPNSPGKLQLNTVLNHITKRGPFLGNNAGILALSYNIINSTIDALRGKHDTAGSIGAGALTGALFKSSKGLKPMGYSSAMVAAACAVWCSVKKRLLEK
notes: Tim23, component of the TIM23 translocon, S. cerevisiae; source: endogenous, S. cerevisiae mitochondrial lysate

fraction copurified [3]: ~10%
B3: Tim22 (natural protein, UniProt Q12328 1-207, looked up)
chain: MVYTGFGLEQISPAQKKPYNELTPEEQGERGAEMIMNFMTSCPGKSVVSGVTGFALGGVLGLFMASMAYDTPLHTPTPANTAATATAGNIGVGGISRTVQQISDLPFRQQMKLQFTDMGKKSYSSAKNFGYIGMIYAGVECVIESLRAKNDIYNGVTAGFFTGAGLAYKAGPQAALMGGAGFAAFSAAIDLYMKSEDGRPPQNDFKE
notes: Tim22, component of the TIM22 translocon, S. cerevisiae; source: endogenous, S. cerevisiae mitochondrial lysate

fraction copurified [3]: ~10%
B4: Tim50 (natural protein, UniProt Q02776 44-476, looked up)
chain: QKETKDDKPKSILTDDMLFKAGVDVDEKGQGKNEETSGEGGEDKNEPSSKSEKSRRKRQTSTDIKREKYANWFYIFSLSALTGTAIYMARDWEPQESEELKKDIDNGYTLSLMYKRFKARFNSMFTYFQEPPFPDLLPPPPPPPYQRPLTLVITLEDFLVHSEWSQKHGWRTAKRPGADYFLGYLSQYYEIVLFSSNYMMYSDKIAEKLDPIHAFVSYNLFKEHCVYKDGVHIKDLSKLNRDLSKVIIIDTDPNSYKLQPENAIPMEPWNGEADDKLVRLIPFLEYLATQQTKDVRPILNSFEDKKNLAEEFDHRVKKLKDKFYGDHKSGGNWAMTALGLGNSLGGSTKFPLDLIHEEGQKNYLMFMKMIEEEKEKIRIQQEQMGGQTFTLKDYVEGNLPSPEEQMKIQLEKQKEVDALFEEEKKKKKIAESK
notes: Tim50, component of the TIM23 translocon, S. cerevisiae; source: endogenous, S. cerevisiae mitochondrial lysate

fraction copurified [3]: ~10%
B5: Tim17 (natural protein, UniProt P39515 1-158, looked up)
chain: MSADHSRDPCPIVILNDFGGAFAMGAIGGVVWHGIKGFRNSPLGERGSGAMSAIKARAPVLGGNFGVWGGLFSTFDCAVKAVRKREDPWNAIIAGFFTGGALAVRGGWRHTRNSSITCACLLGVIEGVGLMFQRYAAWQAKPMAPPLPEAPSSQPLQA
notes: Tim17, component of the TIM23 translocon, S. cerevisiae; source: endogenous, S. cerevisiae mitochondrial lysate
